Data from patent publication CN109776681A.

Biological target: 人IgG蛋白 (human)
Experiment: BLI (Octet RED96), human IgG loaded on the sensor, nanobody at 50 μg/mL in solution

B1: 抗免疫球蛋白G的Fc段的纳米抗体 (编号为I4的阳性克隆) (VHH)
VHH: QVQLVESGGGLVQAGGSLRLSCAASGGTFYSYAMGWFRQAPGKKREFVAAIRWTSGITYYADSVKDRFTISRDNAKNTVYLQMTGLKPEDTAVYYCALGPDNSDSYDYWGQGTQVTVSS
**Q.** Which Kd does the source give for B1 here?
**A.** 3.69 nM

**Q.** And the koff?
**A.** 0.00157 s⁻¹

**Q.** And the kon?
**A.** 426000 M⁻¹ s⁻¹
